In assay [1] the target is T1, rhTIGIT-Avi-His (human, UniProt Q495A1 22-130).
T1 construct: range 22-130; Expressed in Expi 293 cells, Ni-NTA purified; also called rhTIGIT-Avi-His抗原; not shown: C-terminal Avi tag and His tag from vector pCD-Avi-His
T1 sequence (looked up): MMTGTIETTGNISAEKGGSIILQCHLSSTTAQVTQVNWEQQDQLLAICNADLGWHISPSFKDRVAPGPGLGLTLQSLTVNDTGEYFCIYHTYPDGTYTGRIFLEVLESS
As to the kind of experiment: ELISA, rhTIGIT-Avi-His coated at 0.5 ug/mL, antibody titrated.

Assay [2] has as its target T2, 人TIGIT (膜表达人TIGIT稳转细胞株DG44-TIGIT) (human, UniProt Q495A1 22-244).
T2 construct: whole, on cells; also called 细胞表面的TIGIT蛋白; huTIGIT
T2 sequence (looked up): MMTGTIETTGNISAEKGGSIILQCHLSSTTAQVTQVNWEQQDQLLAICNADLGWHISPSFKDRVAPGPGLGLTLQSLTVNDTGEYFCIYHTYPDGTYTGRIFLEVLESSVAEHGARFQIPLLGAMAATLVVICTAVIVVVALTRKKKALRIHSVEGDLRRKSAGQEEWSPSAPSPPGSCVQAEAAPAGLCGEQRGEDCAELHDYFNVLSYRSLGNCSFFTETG
Briefly: FACS binding to DG44-TIGIT cells. (Flow cytometry measures light scatter and fluorescence of single cells or particles in a stream.)

Assay [3] deals with T2, 人TIGIT (膜表达人TIGIT稳转细胞株DG44-TIGIT). Briefly: FACS blocking on DG44-TIGIT cells, competitor rhCD155-cFc-647 (1 ug/ml).
The target of assay [4] is T3, rhTIGIT-Avi-His-bio (human, UniProt Q495A1 22-130, biotin linked to the Avi tag by BirA).
T3 construct: range 22-130; Biotinylated form of rhTIGIT-Avi-His, captured on SA chip for SPR; also called 生物素标记的抗原rhTIGIT-Avi-His-bio; not shown: C-terminal Avi tag (biotinylated) and His tag from vector pCD-Avi-His
T3 sequence (looked up): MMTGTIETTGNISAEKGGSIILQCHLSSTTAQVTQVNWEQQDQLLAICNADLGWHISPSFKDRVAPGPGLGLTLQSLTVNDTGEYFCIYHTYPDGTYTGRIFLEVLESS
Briefly: SPR (Biacore T200), rhTIGIT-Avi-His-bio captured on SA chip, antibody as analyte.

The target in assay [5] is T1, rhTIGIT-Avi-His. Briefly: ELISA on coated rhTIGIT-Avi-His. A general note: An ELISA detects its analyte on a solid surface through an enzyme-linked reagent.
The target of assay [6] is T3, rhTIGIT-Avi-His-bio. As to the kind of experiment: SPR, KD of D1Y1A against KD of 3TB3. On the technique in general: Surface plasmon resonance follows binding to a sensor surface in real time, without labels.

This note sets out measurements from CN109734806A (ANHUI ANKE BIOTECHNOLOGY GROUP CO LTD, dated 2019).

By EC50 is commonly meant the midpoint of the concentration-response curve. As usually defined, the IC50 is the concentration that inhibits the measured activity by half. What is called Kd is the constant that tells how readily two partners part at equilibrium.

B1: TBB8 (antibody, V domains shown)
VH: DVQLQESGPGLVKPSETLSLTCTVSGYSISTGYAWSWIRQPPGKGLEWIGSISAFGGNTYYNPSLKSRVTISVDTSKNQFSLKLSSVTAADTSVYYCARTARWIAFDYWGQGTLVTVSS
VL: DIVLTQSPATLSLSPGERATLSCRASQDIGVSLNWYQQKPGQAPRLLIYWTSFRATGVPTRFSGSGSGTDFTLTISSLEPEDFAVYYCQQANGVPLFTFGQGTKLEIKR
notes: also called 全人源抗人TIGIT单抗TBB8
For B1, the half-maximal effective concentration (EC50) in the assay with rhTIGIT-Avi-His [1] was determined as 0.28 µg/mL; in assay [2], 0.096 µg/mL. The half-maximal inhibitory concentration (IC50) in assay [3] was 0.563 µg/mL.

B2: 5TB10 (antibody, V domains shown)
VH: DVQLQESGPGLVKPSETLSLTCTVSGDSVSDAGVGWNWIRQPPGKGLEWIGTIVPRRGITTYNPSLKSRVTISVDTSKNQFSLKLSSVTAADTSVYYCARVTTAGFDYWGQGTLVTVSS
VL: DIVLTQSPATLSLSPGERATLSCRASQDVKILLNWYQQKPGQAPRLLIYWTSDRATGVPTRFSGSGSGTDFTLTISSLEPEDFAVYYCQQHLDRLPYTFGQGTKLEIKR
notes: also called 全人源抗人TIGIT单抗5TB10
For B2, the figures for the concentration for a half-maximal effect (EC50) (in the assay with rhTIGIT-Avi-His [1]; in assay [2]) were 0.754 µg/mL and 0.0872 µg/mL, respectively. Further, the IC50 in assay [3] worked out at 0.435 µg/mL.

B3: 3TB3 (antibody, V domains shown)
VH: DVQLQESGPGLVKPSETLSLTCTVSGGSISGGYSWSWIRQPPGKGLEWIGSIVPHRSATSYNPSLKSRVTISVDTSKNQFSLKLSSVTAADTSVYYCARSYGGNRLDYWGQGTLVTVSS
VL: DIVLTQSPATLSLSPGERATLSCRASQGVGIRLSWYQQKPGQAPRLLIYYTAYRATGVPTRFSGSGSGTDFTLTISSLEPEDFAVYYCLQTFGDPYTFGQGTKLEIKR
notes: Parent of D1Y1A; also called 全人源抗人TIGIT单抗3TB3; 野生型3TB3
Turning to B3, the EC50 with rhTIGIT-Avi-His [1] amounted to 0.0307 µg/mL; in assay [2], 0.0589 µg/mL. For the same molecule, the dissociation constant Kd in the assay with rhTIGIT-Avi-His-bio [4] was determined as 1.13 nM. The concentration for half-maximal inhibition (IC50) in assay [3] worked out at 0.212 µg/mL.

B4: D1Y1A (antibody, V domains shown)
VH: DVQLQESGPGLVKPSETLSLTCTVSGGSISYWSWIRQPPGKGLEWIGSIATSYNPSLKSRTSVDTSKNQFSLKLSSVTAADTAVYYCARSYGGNRLDYWGQGTLVTVSS
VL: DIVLTQSPATLSLSPGERATLSCRASQGVRLSWYQQKPGQAPRLLIYYYRATGVPARFSGSGSGTDFTLTISSLEPEDFAVYYCLQFPTFGQGTKLEIK
In the case of B4, the “fold improvement against 3TB3 (ELISA)” value with rhTIGIT-Avi-His [5] was about 3 fold. Moreover, the equilibrium dissociation constant (Kd) with rhTIGIT-Avi-His-bio [4] was 0.266 nM. Moreover, in the assay with rhTIGIT-Avi-His-bio [6], the “fold improvement of affinity against 3TB3” value is about 4 fold.

B5: TDC8 (antibody, V domains shown)
VH: DVQLQESGPGLVKPSETLSLTCTVSGGSISSKGFTWSWIRQPPGKGLEWIGQISPLDSSTSYNPSLKSRVTISVDTSKNQFSLKLSSVTAADTSVYYCARGIWTYLYGFDYWGQGTLVTVSS
VL: DIVLTQSPATLSLSPGERATLSCRASQSIHAGYLAWYQQKPGQAPRLLIYWTNLRATGVPTRFSGSGSGTDFTLTISSLEPEDFAVYYCLQLMRYPPTFGQGTKLEIKR
notes: also called 全人源抗人TIGIT单抗TDC8
For B5, the concentration for a half-maximal effect (EC50) in the assay with rhTIGIT-Avi-His [1] worked out at 0.293 µg/mL; in assay [2] it was 0.0585 µg/mL. For the same molecule, in assay [3], the IC50 came out at 0.308 µg/mL.
